# T1: GST fused to full length ESCRT-III (Saci_1373) (S. acidocaldarius, UniProt Q4J924 1-261)
# T1 sequence (looked up): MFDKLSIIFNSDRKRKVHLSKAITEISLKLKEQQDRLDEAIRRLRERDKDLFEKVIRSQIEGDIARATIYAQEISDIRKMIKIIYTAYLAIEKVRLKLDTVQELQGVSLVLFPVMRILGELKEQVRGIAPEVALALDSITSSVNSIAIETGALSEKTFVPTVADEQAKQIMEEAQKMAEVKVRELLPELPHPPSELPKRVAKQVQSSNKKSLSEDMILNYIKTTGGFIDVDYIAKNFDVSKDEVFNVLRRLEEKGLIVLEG
# T2: full length ESCRT-III (Saci_1373), purified recombinant (S. acidocaldarius, UniProt Q4J924 1-261)
# T2 sequence (looked up): T1 sequence (looked up)
# T3: S. solfataricus ESCRT-III wH domain (His6-SSO0910, residues 210-259) (S. solfataricus, UniProt Q97ZJ6 210-259)
# T3 chain (looked up): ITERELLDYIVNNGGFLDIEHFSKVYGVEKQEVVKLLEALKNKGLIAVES
# B1: CdvA (Saci_1374) residues 69-238 (domain or fragment, S. acidocaldarius, UniProt Q4J923 69-238, looked up)
# chain: DWKTDSLKVLGQMEKIRKRQRALEELYSRQEIPKSTYEDMKRKLDSELLKIRDEHSRLKGRLKDRLNSIEDQVAQIDRAMIALKINYISGEIPELAYKNSMEILRLSRDSYALERDDIKKTLDKLDGLDKEVIELKPSASLNTSTEQSNKNEGNKSEVSVPIPVRVINTL
# Experiments:
# [1] = biological target: FlAsH-Saci_1373 (ESCRT-III wH domain, residues 194-261) (S. acidocaldarius) (UniProt Q4J924); experiment: fluorescence polarisation
# [2] = biological target: T1, GST fused to full length ESCRT-III …; experiment: pull-down
# [3] = biological target: T2, full length ESCRT-III (Saci_1373), …; experiment: co-sedimentation
# [4] = biological target: T3, S. solfataricus ESCRT-III wH domain …; experiment: crystal structure
molecule,measurement,setting,value
GST-tagged CdvA residues 208-238 (from UniProt Q4J923 208-238) (domain or fragment),Kd,[1],6 µM
B1,binding result,[2],binds
same,binding result,[3],binds
"SEIPLPIPVKVINTL (peptide, UniProt Q97ZJ5 251-265, looked up) [S. solfataricus CdvA E3B peptide (SSO0911, residues 251-265)]",binding result,[4],binds

# — PMC3763469 (Molecular cell, 2011)
